From patent US20100196919A1, “PEPTIDES, ANTIBODIES AND FRAGMENTS THEREOF FOR THE TREATMENT AND DIAGNOSTIC OF CELIAC DISEASE” (UNIVERSITÀ DEGLI STUDI DI VERONA, priority 2007, published 2010)

T1: solid-phase tTG (Homo sapiens, UniProt P21980)
T1 construct: purchased Eurospital
T1 sequence (P21980 1-687): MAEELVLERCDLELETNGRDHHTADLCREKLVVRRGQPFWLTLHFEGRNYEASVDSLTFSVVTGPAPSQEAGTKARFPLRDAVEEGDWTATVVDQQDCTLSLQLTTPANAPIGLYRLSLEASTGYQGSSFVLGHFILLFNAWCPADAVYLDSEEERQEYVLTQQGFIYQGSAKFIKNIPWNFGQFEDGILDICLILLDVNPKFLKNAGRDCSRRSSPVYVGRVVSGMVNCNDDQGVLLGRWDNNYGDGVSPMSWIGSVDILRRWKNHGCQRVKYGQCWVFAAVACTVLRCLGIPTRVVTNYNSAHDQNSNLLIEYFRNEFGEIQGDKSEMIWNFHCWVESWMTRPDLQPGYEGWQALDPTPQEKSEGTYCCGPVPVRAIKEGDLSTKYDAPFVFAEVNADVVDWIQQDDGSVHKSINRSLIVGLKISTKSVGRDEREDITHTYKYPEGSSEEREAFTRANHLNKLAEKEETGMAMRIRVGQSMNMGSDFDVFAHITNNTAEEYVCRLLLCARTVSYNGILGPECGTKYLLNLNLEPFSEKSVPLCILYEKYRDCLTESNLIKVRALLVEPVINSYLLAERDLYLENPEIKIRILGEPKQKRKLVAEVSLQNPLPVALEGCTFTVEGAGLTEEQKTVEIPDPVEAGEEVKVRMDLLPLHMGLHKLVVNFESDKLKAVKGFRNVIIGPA

T2: solid-phase desmoglein 1 (Homo sapiens, UniProt Q02413)
T2 construct: purchased MBL
T2 sequence (Q02413 50-1049): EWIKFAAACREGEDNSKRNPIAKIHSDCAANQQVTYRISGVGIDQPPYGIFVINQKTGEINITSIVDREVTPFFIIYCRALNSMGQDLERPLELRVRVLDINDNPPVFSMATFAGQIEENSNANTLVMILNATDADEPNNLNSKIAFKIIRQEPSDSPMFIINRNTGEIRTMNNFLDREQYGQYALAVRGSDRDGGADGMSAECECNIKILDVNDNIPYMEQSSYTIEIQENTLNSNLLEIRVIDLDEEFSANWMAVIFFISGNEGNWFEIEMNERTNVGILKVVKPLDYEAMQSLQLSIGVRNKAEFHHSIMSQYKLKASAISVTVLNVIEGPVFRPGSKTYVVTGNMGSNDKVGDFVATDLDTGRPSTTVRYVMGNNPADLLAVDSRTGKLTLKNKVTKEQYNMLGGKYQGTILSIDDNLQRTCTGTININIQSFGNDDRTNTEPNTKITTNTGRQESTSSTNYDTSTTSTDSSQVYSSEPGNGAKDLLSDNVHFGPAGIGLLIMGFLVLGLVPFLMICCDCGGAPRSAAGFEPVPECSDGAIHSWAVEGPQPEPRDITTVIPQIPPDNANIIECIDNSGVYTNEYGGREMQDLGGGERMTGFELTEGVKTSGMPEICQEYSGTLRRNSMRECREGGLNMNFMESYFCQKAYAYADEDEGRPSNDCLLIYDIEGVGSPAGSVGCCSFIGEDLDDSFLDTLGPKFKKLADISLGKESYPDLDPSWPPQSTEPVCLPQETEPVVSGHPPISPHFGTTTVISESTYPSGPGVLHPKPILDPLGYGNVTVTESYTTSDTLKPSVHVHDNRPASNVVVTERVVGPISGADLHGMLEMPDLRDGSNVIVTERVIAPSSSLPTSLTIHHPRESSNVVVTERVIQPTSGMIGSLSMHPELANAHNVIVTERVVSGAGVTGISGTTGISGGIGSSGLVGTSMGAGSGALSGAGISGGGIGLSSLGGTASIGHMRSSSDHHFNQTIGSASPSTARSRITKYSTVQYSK

B1: human recombinant tTG: commercially available recombinant human tissue transglutaminase used as competitor (protein, UniProt P21980 2-687, looked up)
Protein-glutamine …: AEELVLERCDLELETNGRDHHTADLCREKLVVRRGQPFWLTLHFEGRNYEASVDSLTFSVVTGPAPSQEAGTKARFPLRDAVEEGDWTATVVDQQDCTLSLQLTTPANAPIGLYRLSLEASTGYQGSSFVLGHFILLFNAWCPADAVYLDSEEERQEYVLTQQGFIYQGSAKFIKNIPWNFGQFEDGILDICLILLDVNPKFLKNAGRDCSRRSSPVYVGRVVSGMVNCNDDQGVLLGRWDNNYGDGVSPMSWIGSVDILRRWKNHGCQRVKYGQCWVFAAVACTVLRCLGIPTRVVTNYNSAHDQNSNLLIEYFRNEFGEIQGDKSEMIWNFHCWVESWMTRPDLQPGYEGWQALDPTPQEKSEGTYCCGPVPVRAIKEGDLSTKYDAPFVFAEVNADVVDWIQQDDGSVHKSINRSLIVGLKISTKSVGRDEREDITHTYKYPEGSSEEREAFTRANHLNKLAEKEETGMAMRIRVGQSMNMGSDFDVFAHITNNTAEEYVCRLLLCARTVSYNGILGPECGTKYLLNLNLEPFSEKSVPLCILYEKYRDCLTESNLIKVRALLVEPVINSYLLAERDLYLENPEIKIRILGEPKQKRKLVAEVSLQNPLPVALEGCTFTVEGAGLTEEQKTVEIPDPVEAGEEVKVRMDLLPLHMGLHKLVVNFESDKLKAVKGFRNVIIGPA

Assays:
solid-phase tTG = target: T1, solid-phase tTG; test: Competitive ELISA using tTG-coated plates; type: binding; conditions: pre-incubation with competitor, 0.6-20 μg/ml
Experimental: (§1) The direct and competitive ELISA for antibody binding to the synthetic peptides have already been described elsewhere. Briefly, the synthetic peptides were used at a concentration of 20 μg/ml in PBS to coat polystyrene plates (Nunc, Roskilde, Denmark). Plates were then blocked for 1 h with PBS 3% BSA. Serum samples were diluted in diluting buffer (PBS 1% BSA 0.05% Tween) and incubated on the plates for 3 h at room temperature. Plates were then washed twice with PBS 1% Tween and twice with PBS. Bound antibodies were detected by an alkaline phosphatase-conjugated anti-human IgA antiserum (1:1,000 in diluting buffer) (Sigma, St. Louis, Mo., United States) or with an alkaline phosphatase-conjugated anti-human IgG antiserum (1:2,000 in diluting buffer) (Sigma). In some experiments, an alkaline phosphatase-conjugated anti-rabbit IgG antiserum (1:2,000 in diluting buffer) (Sigma) was also used. The secondary reagents were incubated overnight at 4° C.; plates were then washed twice with PBS/Tween and twice with PBS. The alkaline phosphatase substrate (Sigma) diluted in bicarbonate buffer was then added to the wells and the plates read after 30 min or 1 h at a spectrophotometer set at 450 nm. For the competitive assay, the amount of antibody (or serum dilution) that gave 50% of the maximum binding to the antigen on the solid phase was pre-incubated for 1 h at 37° C. with different amounts of competitors (20, 10, 5, 2.5, 1.25, 0.6 μg/ml) or buffer (diluting buffer as the one used in the direct ELISA) and then transferred to the antigen-coated plates. The assay was then carried on as the direct binding assay. For the competitive ELISAs presented in this paper in particular, the following experimental conditions were used. (1) Competitive ELISA using tTG-coated plates. Plates coated with human recombinant tTG were purchased from Eurospital. Serum samples in diluting buffer (serum dilution ranged from 1:400 to 1:1,600 corresponding to 50% maximal binding to solid-phase tTG) were pre-incubated with increasing concentration of competitors (synthetic peptides or recombinant human tTG: 20, 10, 5, 2.5, 1.25, 0.6 μg/ml) for 1 h at 37° C. The mixture was then transferred to the tTG-coated plate. The remainder of the assay was performed as the direct binding assay. Results are expressed as: […]

solid-phase HSP60 = target: T3, solid-phase HSP60 (Homo sapiens, UniProt P10809); test: Competitive ELISA on solid-phase HSP60; type: binding; conditions: pre-incubation with competitor
T3 construct: purchased Stressgen
Experimental: as §1, with “Serum samples in diluting buffer (serum dilution ranged from 1:400 to 1:1,600 corresponding to 50% maximal binding to solid-phase tTG) were pre-incubated with increasing concentration of competitors (synthetic peptides or recombinant human tTG: 20, 10, 5, 2.5, 1.25, 0.6 μg/ml) for 1 h at 37° C. The mixture was then transferred to the tTG-coated plate. The remainder of the assay was performed as the direct binding assay.” left out

solid-phase TLR4 peptide = target: T4, solid-phase TLR4 peptide (Homo sapiens, UniProt O00206); test: Competitive ELISA on solid-phase TLR4 peptide; type: binding; conditions: liquid-phase competitor
T4 construct: made in house; host or cells: chemical solid-phase synthesis (FMOC)
Experimental: as §1

solid-phase desmoglein 1 = target: T2, solid-phase desmoglein 1; test: Competitive ELISA with desmoglein 1-coated plates; type: binding; conditions: liquid-phase competitor, 0.6-20 μg/ml
Experimental: Desmoglein 1-coated plates were purchased from MBL (Woburn, Mass., United States). Serum samples in diluting buffer (serum dilution ranged from 1:400 to 1:800 corresponding to 50% maximal binding to solid-phase desmoglein 1) were pre-incubated with increasing concentrations of competitors (synthetic peptides and recombinant human tTG: 20, 10, 5, 2.5, 1.25, 0.6 μg/ml) for 1 h at 37° C. The mixture was then transferred to the desmoglein-coated plate. In this particular assay, the authors used the desmoglein 1 peptide as liquid-phase competitor, since the only liquid-phase recombinant desmoglein 1 available is an Fc chimera.

Human monocytes = test: Stimulation of monocytes, FACS analysis of activation markers; type: cell-based; conditions: monocytes incubated overnight, antibody preparations 20 μg/ml, LPS 1 μg/ml
Experimental: Human monocytes were isolated from normal donors and incubated overnight at a density of 1×10^6 cells/ml in RPMI 10% FCS in 24-well plates in the presence of the antibody preparations (20 μg/ml) or lipopolysaccharide (LPS) (1 μg/ml) (Sigma). The medium used and all the antibody preparations were treated with Detoxi-gel endotoxin-removing columns (Pierce). Presence of LPS contaminants in the antibody preparation and buffers as well as in the culture medium was assessed using the HEK-Blue LPS Detection Kit (Invivogen); all the antibody preparation and buffers used throughout the study were devoided of LPS contaminants. Monocytes were then used for fluorescence-activated cell sorting (FACS) analysis.
Cells were incubated with R-phycoerythrin directly conjugated anti-CD1, -CD83, and -CD86 antibodies for 30 min on ice. […] Samples were run on a FACScan flow cytometer (Becton Dickinson, Mountain View, Calif., United States). All the antibodies used were purchased from Immunotech (Marseille, France).

[1] = tested on: T84 human intestinal epithelial cell line; test: [3H] mannitol flux across T84 monolayers; type: cell-based; conditions: pre-incubation of antibodies with the substance; T84, 3 h
Experimental: T84 cells obtained from the American Type Culture Collection (Manassas, Va., United States) were grown in a 5% CO2 humidified incubator at 37° C. on 162-cm^2 flasks (Corning Costar, Acton, Mass., United States) with media containing a 1:1 mixture of Ham's F-12 nutrient mixture and DMEM supplemented with 6% heat-inactivated fetal bovine serum, 15 mM HEPES, 14.3 mM NaHCO3, and antibiotics (penicillin and streptomycin)-antimycotics (pH 7.4). Cells were passaged weekly on reaching confluence. For experiments, cells were plated onto collagen-coated permeable supports, where they were fed every 3 d and used from days 7-14 (within fifth passage).
Confluent T84 monolayers grown on 4.7 cm^2 transwell inserts were incubated in HEPES-phosphate-buffered Ringer solution (HPBR, containing 135 mM NaCl, 5 mM KCl, 3.33 mM NaHPO4, 1 mM CaCl2, 1 mM MgCl2, 10 mM glucose, and 5 mM HEPES [pH 7.4]) for 30 min, followed by treatment with basolaterally applied Igs (20 μg/ml) in the presence of [^3H] mannitol (5 μCi/ml) in the basolateral compartment. Apical solution was sampled every 30 min (to detect the presence of [^3H] mannitol) and exchanged with fresh HPBR buffer solution for a total of 4 h. The collected apical samples were placed in vials containing scintillation fluid and analyzed for the presence of [^3H] mannitol by scintillation counter.

T3 sequence (P10809 27-573): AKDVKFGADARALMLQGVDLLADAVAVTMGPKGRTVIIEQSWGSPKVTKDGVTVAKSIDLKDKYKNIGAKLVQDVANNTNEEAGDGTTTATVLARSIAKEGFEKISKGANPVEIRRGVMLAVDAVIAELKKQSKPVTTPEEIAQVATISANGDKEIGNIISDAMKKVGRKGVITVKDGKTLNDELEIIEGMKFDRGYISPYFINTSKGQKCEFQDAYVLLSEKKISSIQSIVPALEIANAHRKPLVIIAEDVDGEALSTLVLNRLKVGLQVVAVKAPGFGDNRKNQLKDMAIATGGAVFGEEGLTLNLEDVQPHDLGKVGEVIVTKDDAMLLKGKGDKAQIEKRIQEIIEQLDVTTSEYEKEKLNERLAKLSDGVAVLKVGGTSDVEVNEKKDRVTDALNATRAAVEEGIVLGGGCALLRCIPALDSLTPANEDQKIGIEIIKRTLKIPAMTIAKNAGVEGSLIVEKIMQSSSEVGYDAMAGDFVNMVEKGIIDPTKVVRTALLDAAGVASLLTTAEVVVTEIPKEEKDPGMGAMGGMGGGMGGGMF

Molecule | inhibition of antibody binding to solid-phase tTG by liquid-phase competitor (solid-phase tTG) | inhibition of antibody binding to solid-phase HSP60 by liquid-phase competitor (solid-phase HSP60) | inhibition of binding of anti-celiac peptide antibodies to solid-phase TLR4 peptide (solid-phase TLR4 peptide) | inhibition of binding of anti-celiac peptide antibodies to solid-phase desmoglein 1 (solid-phase desmoglein 1) | Percentage of positive cells, CD83 (Human monocytes; medium alone 9.4%) | Percentage of positive cells, CD40 (Human monocytes; medium alone 62.3%) | blocking of the effect of anti-celiac peptide antibodies on cell permeability [1]
VIQVGGSNVLDI [VP-7 peptide] | inhibited | inhibited | Inhibition | inhibited | – | – | –
lipopolysaccharide [LPS] | – | – | – | – | 45% | 89% | –
VVKVGGSSSLGW [celiac peptide] | inhibited | inhibited | Inhibition | inhibited | – | – | blocked
VLKMAGNSFQEN [TLR4 peptide] | – | – | Inhibition | inhibited | – | – | –
LSSLGGTASIGH [desmoglein 1 peptide] | – | – | – | inhibited | – | – | –
RIRVGQSMNMGS [tTG peptide] | inhibited | inhibited | – | – | – | – | –
VTLPKDSDVELP [irrelevant control peptide] | not | – | not | – | – | – | not
B1 | – | – | – | inhibited | – | – | blocked
